Experimental data reported in patent publication US20190054137A1 (INDIANA UNIVERSITY RESEARCH AND TECHNOLOGY, published 2019).

Each binder was assayed against T1, Recombinant human p65 protein (r-p65) with DDK tag (OriGene catalog number TP320780) (human, UniProt Q04206 1-551) (assay: plate-bound PGA probed with r-p65-DDK, method of Friguet, Scatchard analysis).
T1 construct: mature; also called r-p65-DDK; human r-p65; not shown: DDK tag
T1 sequence (Q04206 whole entry): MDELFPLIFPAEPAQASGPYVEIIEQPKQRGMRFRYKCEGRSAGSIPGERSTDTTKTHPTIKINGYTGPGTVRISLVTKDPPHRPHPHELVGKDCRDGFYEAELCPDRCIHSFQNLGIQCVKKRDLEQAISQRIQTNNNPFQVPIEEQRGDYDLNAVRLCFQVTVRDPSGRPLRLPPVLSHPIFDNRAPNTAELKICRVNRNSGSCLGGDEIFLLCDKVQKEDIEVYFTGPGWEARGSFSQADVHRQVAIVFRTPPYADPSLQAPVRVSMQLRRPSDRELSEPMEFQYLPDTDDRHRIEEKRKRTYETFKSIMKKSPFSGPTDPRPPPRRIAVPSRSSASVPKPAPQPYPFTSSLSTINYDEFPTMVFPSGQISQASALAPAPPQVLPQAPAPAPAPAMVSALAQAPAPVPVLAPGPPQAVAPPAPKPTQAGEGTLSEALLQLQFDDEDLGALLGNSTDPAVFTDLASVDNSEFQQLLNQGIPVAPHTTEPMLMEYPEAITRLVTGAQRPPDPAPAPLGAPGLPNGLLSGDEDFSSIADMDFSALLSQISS

In order of falling Kd:
1. Ac-APKPYQPRG-NH2 (also called Analog 20 (GA-1)) [PGA-1]  4.28 µM
2. Ac-EPAPEQPDG-NH2 (also called Analog 8 (GA-5)) [PGA-5]  3.4 µM
3. Ac-EPAPESPQV-NH2 (also called Analog 7 (GA-4)) [PGA-4]  3.28 µM
4. Ac-EPAPYQPEG-NH2 (also called Analog 14 (GA-3)) [PGA-3]  3.27 µM
5. Ac-EPAPLAPYG-NH2 (also called Analog 3 (GA-2)) [PGA-2]  2.29 µM
